# Measurements from doi:10.1101/2021.02.24.432666.
# Molecular target: yeast TRiC subunit CCT5 (yeast) (UniProt P40413)
# Assay: cryo-EM structure
substance,measurement,value
yeast TRiC subunit CCT5 (from UniProt P40413 1-562) (natural protein),stoichiometry N (subunits (single ring)),8
